Paper doi:10.1101/2024.12.03.626531, “Lineage–specific amino acids define functional attributes of the protomer-protomer interfaces for the Rad51 and Dmc1 recombinases” (bioRxiv, 2024)

Molecular target: the molecule itself
Assay: cryo-EM structure; helical filament: ScDmc1 5 µM with 0.25 µM 96-mer ssDNA in HR buffer supplemented with 1.5 mM CaCl2, 30°C for 5 minutes; 8 mM CHAPSO added before freezing

B1: S. cerevisiae Dmc1 (natural protein, UniProt P25453 1-334, looked up)
chain: MSVTGTEIDSDTAKNILSVDELQNYGINASDLQKLKSGGIYTVNTVLSTTRRHLCKIKGLSEVKVEKIKEAAGKIIQVGFIPATVQLDIRQRVYSLSTGSKQLDSILGGGIMTMSITEVFGEFRCGKTQMSHTLCVTTQLPREMGGGEGKVAYIDTEGTFRPERIKQIAEGYELDPESCLANVSYARALNSEHQMELVEQLGEELSSGDYRLIVVDSIMANFRVDYCGRGELSERQQKLNQHLFKLNRLAEEFNVAVFLTNQVQSDPGASALFASADGRKPIGGHVLAHASATRILLRKGRGDERVAKLQDSPDMPEKECVYVIGEKGITDSSD
notes: Dmc1 meiotic recombinase, Saccharomyces cerevisiae, full-length wild type; Helical filament on a 96-nt ssDNA with ATP; 6.35 monomers per turn; Expressed as 6XHis-ScDmc1; no removal of the tag is described; also called ScDmc1; yeast Dmc1; source: E. coli BL21 (DE3) Rosetta2, purified (Talon resin, heparin sepharose)
  binding result: binds
